Assay results published in paper PMC5679670, “The helicase DinG responds to stress due to DNA double strand breaks” (PLoS ONE, 2017).

Assays:
DinGNm = biological target: T1, DinGNm (Neisseria meningitidis, UniProt Q9K181); test: forked DNA (T1+B1) unwinding, native PAGE; assay type: biochemical; conditions: 2 mM nucleotide, 2 mM Mg2+, 400 nM DinG, pH 7.5, 37 °C; read-out is nucleotide-dependent unwinding
T1 construct: gene dinG; full-length gene amplified from MC58 genomic DNA, C-terminal 6xHis tag (pET-28b(+), pSB13), E. coli NiCo21(DE3); Ni-NTA and Resource Q; iron-containing (4 Fe per protein)
T1 sequence (Q9K181 1-716): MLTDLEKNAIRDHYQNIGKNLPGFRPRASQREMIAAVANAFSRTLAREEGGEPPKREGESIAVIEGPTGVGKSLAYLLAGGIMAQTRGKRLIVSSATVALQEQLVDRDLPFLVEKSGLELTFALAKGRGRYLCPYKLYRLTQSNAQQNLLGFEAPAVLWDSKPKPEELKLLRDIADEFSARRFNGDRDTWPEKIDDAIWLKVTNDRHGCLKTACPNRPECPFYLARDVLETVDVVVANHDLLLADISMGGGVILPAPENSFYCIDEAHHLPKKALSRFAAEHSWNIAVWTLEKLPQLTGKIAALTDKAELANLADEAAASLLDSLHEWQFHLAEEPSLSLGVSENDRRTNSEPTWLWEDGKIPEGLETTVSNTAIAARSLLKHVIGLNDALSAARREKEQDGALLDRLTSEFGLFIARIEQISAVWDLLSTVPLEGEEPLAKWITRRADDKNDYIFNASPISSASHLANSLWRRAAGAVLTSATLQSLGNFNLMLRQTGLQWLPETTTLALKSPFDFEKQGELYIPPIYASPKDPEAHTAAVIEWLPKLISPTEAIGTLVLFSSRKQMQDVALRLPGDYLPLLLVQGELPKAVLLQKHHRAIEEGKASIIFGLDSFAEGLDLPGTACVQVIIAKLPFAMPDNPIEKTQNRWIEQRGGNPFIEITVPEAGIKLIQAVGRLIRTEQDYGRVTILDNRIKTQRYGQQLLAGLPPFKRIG

DinGNmK72A = DinGNmK72A (Neisseria meningitidis MC58, UniProt Q9K181 1-716, K72A); test: EMSA; protein titration; mutant retained DNA binding affinity; EMSA: 40 mM Tris-HCl pH 8, 2.5 mM EDTA, 2 mM MgCl2, 100 mg/ml BSA (so in the source), 6% glycerol, 2 mM DTT, 0.1 nM 32P-DNA, 15 min on ice; 5% native PAGE in ice bath; conditions: protein: recombinant; tags: C-terminal 6xHis; label: 32P; single strand
[1] = biological target: T2, Neisseria meningitidis helicase DinG (DinGNm) (N. meningitidis MC58, UniProt Q9K181 1-716); test: MST; SSB proteins labelled (RED-NHS, 20.7 nM), DinG proteins titrated as ligands; 20 mM HEPES pH 7.5, 300 mM NaCl, 0.05% Tween 20, 0.1% Pluronic F-127, 0.1% PEG 8000, 2 mM DTT; 22°C, 20% MST power; conditions: both partners purified
T2 construct: DinG helicase of Neisseria meningitidis strain MC58, gene amplified from genomic DNA and cloned into pET-28b(+) (plasmid pSB13); also called Nm DinG; DNA damage-inducible protein DinG; source: E. coli NiCo21 (DE3) with pLysS, purified (Ni-NTA, Resource Q ion exchange)
T2 sequence (looked up): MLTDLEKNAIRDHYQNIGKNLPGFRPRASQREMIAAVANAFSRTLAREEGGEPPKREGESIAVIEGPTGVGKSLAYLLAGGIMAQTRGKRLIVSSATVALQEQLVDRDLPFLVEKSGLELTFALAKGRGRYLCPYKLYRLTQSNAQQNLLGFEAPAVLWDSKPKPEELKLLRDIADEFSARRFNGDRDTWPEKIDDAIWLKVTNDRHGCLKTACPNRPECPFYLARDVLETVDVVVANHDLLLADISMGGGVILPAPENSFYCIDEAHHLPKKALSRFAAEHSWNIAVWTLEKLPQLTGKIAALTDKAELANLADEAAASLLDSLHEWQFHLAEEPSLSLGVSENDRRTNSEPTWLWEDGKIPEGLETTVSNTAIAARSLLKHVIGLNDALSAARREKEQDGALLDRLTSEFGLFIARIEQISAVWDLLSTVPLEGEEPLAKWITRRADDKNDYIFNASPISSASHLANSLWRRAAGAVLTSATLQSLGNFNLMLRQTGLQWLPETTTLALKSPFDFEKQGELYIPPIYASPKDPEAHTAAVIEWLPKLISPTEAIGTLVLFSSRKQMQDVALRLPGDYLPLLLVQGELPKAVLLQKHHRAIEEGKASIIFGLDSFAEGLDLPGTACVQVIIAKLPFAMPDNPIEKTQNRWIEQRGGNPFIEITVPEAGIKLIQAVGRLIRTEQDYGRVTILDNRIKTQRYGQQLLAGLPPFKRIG

[2] = biological target: SSBNmΔ8C (N. meningitidis MC58); test: as above

Q: Which “forked DNA (T1+B1) unwinding, native PAGE” value (DinGNm) does the source give for `Nc1ncnc2c1ncn2[C@H]1C[C@H](O)[C@@H](COP(=O)(O)OP(=O)(O)OP(=O)(O)O)O1` [dATP] here?
A: unwinding activity of DinGNm was observed only in the presence of ATP or dATP

B1: poly dT100 (ssDNA)
DNA: TTTTTTTTTTTTTTTTTTTTTTTTTTTTTTTTTTTTTTTTTTTTTTTTTTTTTTTTTTTTTTTTTTTTTTTTTTTTTTTTTTTTTTTTTTTTTTTTTTTT
Q: Does B1 bind (DinGNmK72A)?
A: binds

B2: Neisseria meningitidis single-stranded DNA binding protein (SSBNm) (natural protein, N. meningitidis MC58, UniProt P66848 1-174, looked up)
chain: MSLNKVILIGRLGRDPEVRYMPNGEAVCNFSVATSETWNDRNGQRVERTEWHNITMYRKLAEIAGQYLKKGGLVYLEGRIQSRKYQGKDGIERTAYDIVANEMKMLGGRNENSGGAPYEEGYGQSQEAYQRPAQQSRQPASDAPSHPQEAPAAPRRQPVPAAAPVEDIDDDIPF
modifications: in the MST assay labelled with the Monolith NT Protein Labeling Kit RED-NHS, degree of labelling 0.7
notes: SSB of Neisseria meningitidis, expression vector pEH1; Unlabelled in the ammonium sulphate co-precipitation
Q: For B2, which Kd [1] is on record?
A: 1360 ± 110 nM

B3: Neisseria meningitidis helicase DinG (DinGNm) (enzyme)
chain: MLTDLEKNAIRDHYQNIGKNLPGFRPRASQREMIAAVANAFSRTLAREEGGEPPKREGESIAVIEGPTGVGKSLAYLLAGGIMAQTRGKRLIVSSATVALQEQLVDRDLPFLVEKSGLELTFALAKGRGRYLCPYKLYRLTQSNAQQNLLGFEAPAVLWDSKPKPEELKLLRDIADEFSARRFNGDRDTWPEKIDDAIWLKVTNDRHGCLKTACPNRPECPFYLARDVLETVDVVVANHDLLLADISMGGGVILPAPENSFYCIDEAHHLPKKALSRFAAEHSWNIAVWTLEKLPQLTGKIAALTDKAELANLADEAAASLLDSLHEWQFHLAEEPSLSLGVSENDRRTNSEPTWLWEDGKIPEGLETTVSNTAIAARSLLKHVIGLNDALSAARREKEQDGALLDRLTSEFGLFIARIEQISAVWDLLSTVPLEGEEPLAKWITRRADDKNDYIFNASPISSASHLANSLWRRAAGAVLTSATLQSLGNFNLMLRQTGLQWLPETTTLALKSPFDFEKQGELYIPPIYASPKDPEAHTAAVIEWLPKLISPTEAIGTLVLFSSRKQMQDVALRLPGDYLPLLLVQGELPKAVLLQKHHRAIEEGKASIIFGLDSFAEGLDLPGTACVQVIIAKLPFAMPDNPIEKTQNRWIEQRGGNPFIEITVPEAGIKLIQAVGRLIRTEQDYGRVTILDNRIKTQRYGQQLLAGLPPFKRIG
Q: Which Kd [2] does the source give for B3 here?
A: 3.71 µM
